Measured values: PMC7567440 (2020)

Target: recombinant flagellin of Bacillus cereus HN001 (WR52_08290) (Bacillus cereus HN001)
Experiment: BLI

B1: pigeon ovomucoid (natural protein)
chain: VEVDCSRYHNTTNVEGREGLPCTKDFNPICGSDGVTYDNECLLCSYNREYGTNVSKDHDGQCREVIPVDCSKYPNVTNEEGRVALFCTENLRLVCGADGVTYDNECLLCARSLERGTRAGKKYDGECRREITTVDCSDHPQHACTLNYLPVCGSDSRTYSNRCNFCNAVVHSNGTLTLNYFGEC
modifications: terminal Galα1-4Gal residues; biotin (biotinylated POVO in the BLI assay)
koff: 0.000376 s⁻¹
